Source: the supplement of paper PMC10724198
± gives the standard deviation of the averaged measurements.

Test system: Saccharomyces cerevisiae
Experiment: protein stability index of tFT-peptide fusion (C-terminal peptide) (PSI (0-1 scale)); higher = more stable (slower turnover)
Conditions: genetic background: wild type; temperature: 30 C
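Also: PSI is a weighted mean of sequencing reads over stability bins, variants kept only with over 10 reads, mCherry proximal and sfGFP distal, peptide attached via GGGS linker.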

Sequence	protein stability index
SKGLPADSQQPF	0.729 ± 0.054
SKIKLYKIKKKK	0.7206 ± 0.0054
SKKARIYIKKRR	0.683 ± 0.053
SKKLRRNKYRNG	0.6871 ± 0.0039
SKKRKRNKKKGE	0.74 ± 0.098
SKQKSKNYEAFK	0.721 ± 0.039
SKRSYEEGNIVY	0.672 ± 0.028
SKRYREKIVRNK	0.677 ± 0.04
SKTEKELSNREF	0.659 ± 0.025
SLAFIRFPSPSP	0.668 ± 0.0083
SLAFLPPSLSSS	0.713 ± 0.056
SLAPPVPPPPLH	0.67 ± 0.026
SLFNADPYGFNL	0.711 ± 0.03
SLFRVAFLYVQV	0.5406 ± 0.0018
SLGGGGGLAWWL	0.795 ± 0.26
SLGWGRVNVCGV	0.666 ± 0.0031
SLHSSQYTRHSG	0.673 ± 0.024
SLHVSSLPYALQ	0.662 ± 0.082
SLKHRSSLRQLI	0.519 ± 0.01
SLKIPSPLSPVL	0.699 ± 0.028
SLLCDQSSLGQC	0.747 ± 0.11

Sequence	protein stability index
SLLELSPPRSPP	0.681 ± 0.03
SLLFLRFLFSTP	0.705 ± 0.0086
SLLLPLPLPVRL	0.582 ± 0.0086
SLLPCAPHPRPV	0.662 ± 0.074
SLPHHRPPHPRT	0.752 ± 0.17
SLPKSSLFAPHL	0.715 ± 0.023
SLPLPPPSPPHV	0.676 ± 0.018
SLPPSPPPPSLP	0.715 ± 0.028
SLPRPYPQKVTG	0.621 ± 0.015
SLRLHCSRQRRP	0.649 ± 0.048
SLRLPPPTDTDS	0.681 ± 0.03
SLRQEFDAIFVG	0.604 ± 0.039
SLRSGFVSHFSP	0.689 ± 0.11
SLRSIAPLGSRC	0.832 ± 0.19
SLSAQTISDLSM	0.68 ± 0.049
SLSDKRATKGED	0.65 ± 0.018
SLSHPSPPRTLP	0.697 ± 0.007
SLSIWSTSPPAA	0.691 ± 0.0086
SLSLRPPPYPPP	0.578 ± 0.0096
SLSPLPSPPPPP	0.7 ± 0.0087
SLSPPPPAPRAP	0.663 ± 0.02

Sequence	protein stability index
SLSPTPVAPPLN	0.678 ± 0.009
SLSRPASPPPHH	0.674 ± 0.12
SLTLPAPPLSPC	0.712 ± 0.11
SLTYTSVAKAEV	0.6149 ± 0.0034
SLVVPVSAAQYV	0.653 ± 0.028
SLVWVGGRRWPI	0.73 ± 0.023
SMARVWLVWRWK	0.673 ± 0.035
SMFLGLCGSIYG	0.699 ± 0.056
SMMMIISQRKTR	0.787 ± 0.1
SMPKMGISGVIY	0.617 ± 0.051
SNDTRKNKKRRT	0.797 ± 0.084
SNGYMFRRDRYV	0.686 ± 0.028
SNLYNNQEQDHT	0.723 ± 0.058
SNPSTNPCWKKK	0.643 ± 0.041
SNRALHATPCPR	0.9 ± 0.038
SNRCGRGMRVFA	0.658 ± 0.065
SNVHSYPEIRPG	0.681 ± 0.01
SPAPLALSLRPP	0.668 ± 0.023
SPAPPVPLHPPH	0.714 ± 0.089
SPAPRAPRGICL	0.706 ± 0.017
SPCPPPPPSPPS	0.6637 ± 0.0013

Sequence	protein stability index
SPETSSILLLSF	0.612 ± 0.0035
SPGLQPVACPSF	0.639 ± 0.019
SPGRPGLGGGAW	0.776 ± 0.26
SPGRPSSPPRPR	0.744 ± 0.029
SPGVFQQRHHTY	0.665 ± 0.087
SPHSRAPPRFPP	0.726 ± 0.14
SPILRFPPPCFL	0.67 ± 0.019
SPKGHGEGGGSK	0.6779 ± 0.00078
SPKPPPHPPPPA	0.535 ± 0.0095
SPLASVLPHAAL	0.707 ± 0.049
SPLFLPPPVPPP	0.599 ± 0.039
SPLFPPIPSSLS	0.7278 ± 0.00076
SPLGAADTRQEP	0.687 ± 0.025
SPLLRSRPPPPI	0.749 ± 0.016
SPLPPHPPLPLL	0.6395 ± 0.002
SPLPPPSPRPSL	0.681 ± 0.039
SPLPPRSPPRPA	0.699 ± 0.01
SPLSPLPPALSL	0.695 ± 0.046
